Experimental findings from publication doi:10.1101/833699 (bioRxiv, 2019) are described below.

The series “SEC-MALS” deals with the molecule itself. The series can be described thus: SEC-MALS.
The series “AUC + SEC-MALS” concerns the molecule itself. The series can be described thus: AUC + SEC-MALS.

B1: ΔRBD2-CDTb (residues 212-751), CDTb construct that lacks the C-terminal receptor binding domain 2 (domain or fragment)
chain: SDWEDEDLDTDNDNIPDSYERNGYTIKDLIAVKWEDSFAEQGYKKYVSNYLESNTAGDPYTDYEKASGSFDKAIKTEARDPLVAAYPIVGVGMEKLIISTNEHASTDQGKTVSRATTNSKTESNTAGVSVNVGYQNGFTANVTTNYSHTTDNSTAVQDSNGESWNTGLSINKGESAYINANVRYYNTGTAPMYKVTPTTNLVLDGDTLSTIKAQENQIGNNLSPGDTYPKKGLSPLALNTMDQFSSRLIPINYDQLKKLDAGKQIKLETTQVSGNFGTKNSSGQIVTEGNSWSDYISQIDSISASIILDTENESYERRVTAKNLQDPEDKTPELTIGEAIEKAFGATKKDGLLYFNDIPIDESCVELIFDDNTANKIKDSLKTLSDKKIYNVKLERGMNILIKTPTYFTNFDDYNNYPSTWSNVNTTNQDGLQGSANKLNGETKIKIPMSELKPYKRYVFSGYSKDPLTSNSIIVKIKAKEEKTDYLVPEQGYTKFSYEFETTEKDSSNIEITLIGSGTTYLDNLSITELNSTPEILDEP
As a reminder, the stoichiometry N is a count of units in the complex or per binding partner. For the protein B1, in “SEC-MALS”, the “stoichiometry N” value turned out to be 7.

B2: activated CDTb (aCDTb; residues 212-876), cell-binding and pore-forming component of the C. difficile binary toxin (CDT) (domain or fragment)
chain: SDWEDEDLDTDNDNIPDSYERNGYTIKDLIAVKWEDSFAEQGYKKYVSNYLESNTAGDPYTDYEKASGSFDKAIKTEARDPLVAAYPIVGVGMEKLIISTNEHASTDQGKTVSRATTNSKTESNTAGVSVNVGYQNGFTANVTTNYSHTTDNSTAVQDSNGESWNTGLSINKGESAYINANVRYYNTGTAPMYKVTPTTNLVLDGDTLSTIKAQENQIGNNLSPGDTYPKKGLSPLALNTMDQFSSRLIPINYDQLKKLDAGKQIKLETTQVSGNFGTKNSSGQIVTEGNSWSDYISQIDSISASIILDTENESYERRVTAKNLQDPEDKTPELTIGEAIEKAFGATKKDGLLYFNDIPIDESCVELIFDDNTANKIKDSLKTLSDKKIYNVKLERGMNILIKTPTYFTNFDDYNNYPSTWSNVNTTNQDGLQGSANKLNGETKIKIPMSELKPYKRYVFSGYSKDPLTSNSIIVKIKAKEEKTDYLVPEQGYTKFSYEFETTEKDSSNIEITLIGSGTTYLDNLSITELNSTPEILDEPEVKIPTDQEIMDAHKIYFADLNFNPSTGNTYINGMYFAPTQTNKEALDYIQKYRVEATLQYSGFKDIGTKDKEMRNYLGDPNQPKTNYVNLRSYFTGGENIMTYKKLRIYAITPDDRELLVLSVD
Take B2: in the series “AUC + SEC-MALS”, the “stoichiometry N” value was determined as 14.
